Experimental data reported in US20210393689A1 (JUNO THERAPEUTICS, published 2021).

Target: T1, murine GPRC5D (murine, UniProt Q9JIL6 1-344)
T1 construct: whole, on cells; also called mGPRC5D; mouse GPRC5D
T1 sequence (looked up): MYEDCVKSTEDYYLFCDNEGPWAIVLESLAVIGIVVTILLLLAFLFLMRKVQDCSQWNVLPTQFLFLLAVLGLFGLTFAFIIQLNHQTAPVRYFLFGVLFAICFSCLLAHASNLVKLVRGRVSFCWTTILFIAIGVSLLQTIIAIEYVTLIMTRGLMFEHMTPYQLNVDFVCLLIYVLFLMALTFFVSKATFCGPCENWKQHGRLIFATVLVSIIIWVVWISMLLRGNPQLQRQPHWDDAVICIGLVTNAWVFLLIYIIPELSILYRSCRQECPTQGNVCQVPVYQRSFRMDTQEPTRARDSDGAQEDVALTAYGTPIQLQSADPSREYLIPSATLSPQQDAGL
Assay: Jurkat Nur77-RFP reporter activation after 1:1 co-culture with K562 cells expressing mGPRC5D (indirect read-out)
Procedure: K562 cells were transduced to express human (hGPRC5D), cGPRC5D or mGPRC5D. The Jurkat Nur77-RFP activation reporter line described above was transduced with polynucleotides constructs encoding CARs described in Example 3. […] Reporter cells were also incubated with parental K562 cells as a negative control.

- binding result: no binding
B1: GPRC5D-203 VL/VH - long (anti-GPRC5D CAR: GPRC5D-203 VL/VH scFv, long spacer, CD28 transmembrane domain, 4-1BB and CD3zeta signaling domains) (other)
chain: SSELTQDPAVSVALGQTVRITCQGDSLRSYYASWYQQKPGQAPVLVIYGKNNRPSGIPDRFSGSSSGNTASLTITGAQAEDEADYYCNSRDSSGNPPVVFGGGTKLTVLGSRGGGGSGGGGSGGGGSLEMAQVQLVESGGGLVHPGGSLRLSCAASGFTFRSHSMNWVRQAPGKGLEWVSSISSDSTYTYYADSVKGRFTISRDNAKNSLYLQMNSLRAEDTAVYYCARSGGQWKYYDYWGQGTLVTVSSESKYGPPCPPCPAPPVAGPSVFLFPPKPKDTLMISRTPEVTCVVVDVSQEDPEVQFNWYVDGVEVHNAKTKPREEQFQSTYRVVSVLTVLHQDWLNGKEYKCKVSNKGLPSSIEKTISKAKGQPREPQVYTLPPSQEEMTKNQVSLTCLVKGFYPSDIAVEWESNGQPENNYKTTPPVLDSDGSFFLYSRLTVDKSRWQEGNVFSCSVMHEALHNHYTQKSLSLSLGKMFWVLVVVGGVLACYSLLVTVAFIIFWVKRGRKKLLYIFKQPFMRPVQTTQEEDGCSCRFPEEEEGGCELRVKFSRSADAPAYQQGQNQLYNELNLGRREEYDVLDKRRGRDPEMGGKPRRKNPQEGLYNELQKDKMAEAYSEIGMKGERRRGKGHDGLYQGLSTATKDTYDALHMQALPPR
notes: Chimeric antigen receptor on the surface of Jurkat Nur77-RFP reporter cells or primary T cells; signal peptide left out; In the reporter constructs a T2A-GFP follows the CAR, so T2A residues may remain at the C-terminus
